The values that follow come from patent publication US20130158238A1 (THERACLONE SCIENCES, published 2013).

A word on the EC50 (read off the curve): it is the concentration giving half of the maximal effect. Low readings indicate an effect from little substance, high ones a need for much substance.

Test [1] deals with M2 protein of A/Hong Kong/483/1997, on cells (Influenza A virus A/Hong Kong/483/97 (H5N1)). As to the kind of experiment: FACS, supernatant on CHO cells stably expressing M2 of A/Hong Kong/483/97. A general note: In flow cytometry, cells or beads pass a laser one at a time.
A further test concerns the target CM14. As to the kind of experiment: ELISA, peptide 2 µg/mL, mAb 5 µg/mL.
In another test the target is NM7. As to the kind of experiment: ELISA, peptide 2 µg/mL, mAb 5 µg/mL. For orientation: An ELISA detects its analyte on a solid surface through an enzyme-linked reagent.
The next test addresses CM13. As to the kind of experiment: ELISA, peptide 2 µg/mL, mAb 5 µg/mL.
The next test has as its target M12. As to the kind of experiment: ELISA, peptide 2 µg/mL, mAb 5 µg/mL.
A further test addresses NM17. As to the kind of experiment: ELISA, peptide 2 µg/mL, mAb 5 µg/mL.
For another test, the target named is NM15. As to the kind of experiment: ELISA, peptide 2 µg/mL, mAb 5 µg/mL.
For the next test, the target named is NM13. As to the kind of experiment: ELISA, peptide 2 µg/mL, mAb 5 µg/mL.
The target in a further test is CM15. As to the kind of experiment: ELISA, peptide 2 µg/mL, mAb 5 µg/mL.
For test [2], the target named is M2e peptide … (23mer synthetic peptide of M2 derived from A/Fort Worth/1/50) (Influenza A virus A/Fort Worth/1/50 (H1N1)). As to the kind of experiment: ELISA, peptide 2 µg/mL, mAb 5 µg/mL.
A further test has as its target M16. As to the kind of experiment: ELISA, peptide 2 µg/mL, mAb 5 µg/mL.
The next test deals with NM14. As to the kind of experiment: ELISA, peptide 2 µg/mL, mAb 5 µg/mL.
In a further test the target is CM16. As to the kind of experiment: ELISA, peptide 2 µg/mL, mAb 5 µg/mL.
A further test deals with NM8. As to the kind of experiment: ELISA, peptide 2 µg/mL, mAb 5 µg/mL.
The next test concerns the target CM17. As to the kind of experiment: ELISA, peptide 2 µg/mL, mAb 5 µg/mL.
Another test has as its target NM12. As to the kind of experiment: ELISA, peptide 2 µg/mL, mAb 5 µg/mL.
For another test, the target named is CM12. As to the kind of experiment: ELISA, peptide 2 µg/mL, mAb 5 µg/mL.
For a further test, the target named is M15. As to the kind of experiment: ELISA, peptide 2 µg/mL, mAb 5 µg/mL.
Test [3] concerns the target M2 protein on influenza A/Puerto Rico/8/34 (H1N1) virus particles (Influenza A virus A/Puerto Rico/8/34 …, UniProt P06821 1-97).

“And” between values parts separate entries of the source, which are not always exact repeats. Equal entries are not always repeated.

B1: 8i10 (antibody, V domains shown)
VH: QVQLQESGPGLVKPSETLSLTCTVSGSSISNYYWSWIRQSPGKGLEWIGFIYYGGNTKYNPSLKSRVTISQDTSKSQVSLTMSSVTAAESAVYFCARASCSGGYCILDYWGQGTLVTVS
VL: DIQMTQSPSSLSASVGDRVTITCRASQNIYKYLNWYQQRPGKAPKGLISAASGLQSGVPSRFSGSGSGTDFTLTITSLQPEDFATYYCQQSYSPPLTFGGGTRVEIK
Consider B1, for which, in test [1], the FACS M2-HK MFI was 754 MFI and 1080 MFI. Further, the binding activity (ELISA A450) with CM14 was determined as 0.14; with NM7 it was 0.1; with CM13 it was 0.14; with M12 it was 0.09; with NM17 it was 0.26; with NM15, 0.12. For the same molecule, the binding activity (ELISA A450) is 0.11 in the test with NM13; 0.12 in the test with CM15; 0.11 in test [2]; 0.09 with M16; 0.11 with NM14; 0.13 with CM16. In addition, the binding activity (ELISA A450) with NM8 came out at 0.1; with CM17, 0.11; in the test with NM12, 0.1; in the test with CM12, 0.14; with M15 it was 0.09. Besides, in test [3], the “EC50 (read off the curve)” value was around 0.04 µg/mL.

B2: 23K12 (antibody, V domains shown)
VH: EVQLVESGGGLVQPGGSLRISCAASGFTVSSNYMSWVRQAPGKGLEWVSVIYSGGSTYYADSVKGRFSFSRDNSKNTVFLQMNSLRAEDTAVYYCARCLSRMRGYGLDVWGQGTTVTVS
VL: DIQMTQSPSSLSASVGDRVTITCRTSQSISSYLNWYQQKPGKAPKLLIYAASSLQSGVPSRFSGSGSGTDFTLTISGLQPEDFATYYCQQSYSMPAFGQGTKLEIK
As to B2, the binding activity (ELISA A450) with CM14 amounted to 0.36; in the test with NM7 it was 0.2; with CM13, 0.34; with M12 it was 0.2; with NM13, 0.25; in the test with CM15, 0.34. Also, the binding activity (ELISA A450) with NM14 amounted to 0.24; with CM16 it was 0.35; in the test with NM8, 0.2; with CM17, 0.34; in the test with NM12, 0.24; in the test with CM12, 0.39. Also, the “EC50 (read off the curve)” value in test [3] was around 0.06 µg/mL.
